Blank lines part the entries; values can stand above or below the molecule they belong to.
Key:
SufE (Escherichia coli) = SufE (Escherichia coli) (UniProt P76194); experiment: SPR; details: cited from earlier work
SufE (E. coli), P76194 = molecular target: T1, SufE (E. coli), P76194; experiment: cross-linking; details: remark: other sources report otherwise
T1 chain: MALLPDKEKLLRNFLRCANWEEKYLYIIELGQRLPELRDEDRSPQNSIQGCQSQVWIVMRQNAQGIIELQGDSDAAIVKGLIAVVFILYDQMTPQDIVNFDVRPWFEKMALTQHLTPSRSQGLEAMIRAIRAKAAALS

[1] = molecular target: T2, SufS cysteine desulfurase (E. coli, UniProt P77444 1-406); experiment: inhibition of enzyme activity
T2 sequence (looked up): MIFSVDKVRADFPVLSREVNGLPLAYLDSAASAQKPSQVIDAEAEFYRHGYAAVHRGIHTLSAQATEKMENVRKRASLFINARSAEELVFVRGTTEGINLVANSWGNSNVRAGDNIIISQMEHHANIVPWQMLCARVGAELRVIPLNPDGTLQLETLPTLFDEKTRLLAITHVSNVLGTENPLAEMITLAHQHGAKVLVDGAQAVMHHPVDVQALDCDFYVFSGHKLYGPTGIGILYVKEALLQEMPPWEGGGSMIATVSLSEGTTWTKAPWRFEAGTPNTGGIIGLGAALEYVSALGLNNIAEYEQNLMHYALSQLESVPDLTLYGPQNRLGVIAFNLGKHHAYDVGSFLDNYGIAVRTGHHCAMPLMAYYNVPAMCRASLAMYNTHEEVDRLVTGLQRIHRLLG

Molecule: SufS (from UniProt P77444)
- Kd (SufE (Escherichia coli)): 360 nM

- percent of total protein as disulfide-bonded homodimer (with or without H2O2) (SufE (E. coli), P76194): 18%
- stoichiometry N (SufE (E. coli), P76194): 2
B1: SufE, P76194 1-138 (natural protein)
chain: MALLPDKEKLLRNFLRCANWEEKYLYIIELGQRLPELRDEDRSPQNSIQGCQSQVWIVMRQNAQGIIELQGDSDAAIVKGLIAVVFILYDQMTPQDIVNFDVRPWFEKMALTQHLTPSRSQGLEAMIRAIRAKAAALS

- Ki [1]: 190 nM
B2: SufE where C51 has been covalently blocked with iodoacetamide (natural protein, E. coli, UniProt P76194 1-138, looked up)
chain: MALLPDKEKLLRNFLRCANWEEKYLYIIELGQRLPELRDEDRSPQNSIQGCQSQVWIVMRQNAQGIIELQGDSDAAIVKGLIAVVFILYDQMTPQDIVNFDVRPWFEKMALTQHLTPSRSQGLEAMIRAIRAKAAALS
modifications: C51 covalently blocked with iodoacetamide

From PMC3511050 (FEBS letters, 2012)
